Reference: patent US20180371095A1

Molecular target: recombinant human VSIG4 (rhVSIG4), construct not stated (human) (UniProt Q9Y279)
Assay: ELISA, soluble rhVSIG4 coated, streptavidin-HRP detection, background corrected

With “biotinylated rhSIGLEC-7 (from UniProt Q9Y286 19-357) (ligand)” the absorbance at 452 nm was 2.3 absorbance.
